From US20220064291A1 (Merck Sharp & Dohme, published 2022)
Where a chain is given by its changes, count along the chain named. In names and notes the source's numbering stands.

T1: BTN2A2-Fc (recombinant human BTN2A2 Fc-chimera, HEK293-expressed, R&D Systems) (human, UniProt Q8WVV5 33-265)
T1 construct: Bought Fc-chimera; Biotinylated for the yeast display selections; not shown: Fc part of the bought Fc-chimera
T1 sequence (looked up): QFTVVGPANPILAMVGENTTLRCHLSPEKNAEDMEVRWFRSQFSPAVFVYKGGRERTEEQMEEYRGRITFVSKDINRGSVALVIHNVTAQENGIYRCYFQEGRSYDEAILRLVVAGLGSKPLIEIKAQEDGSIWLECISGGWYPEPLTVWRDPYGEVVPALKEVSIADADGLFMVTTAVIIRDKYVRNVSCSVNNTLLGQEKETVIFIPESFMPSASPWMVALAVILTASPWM

B1: Antibody 2L (antibody, IgG1, V domains shown)
VH: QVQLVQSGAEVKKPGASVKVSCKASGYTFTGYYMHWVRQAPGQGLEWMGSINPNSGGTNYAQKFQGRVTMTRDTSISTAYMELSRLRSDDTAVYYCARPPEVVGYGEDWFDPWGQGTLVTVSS
VL: DIQMTQSPSSVSASVGDRVTITCRASQGISSWLAWYQQKPGKAPKLLIYAASNLQSGVPSRFSGSGSGTDFTLTISSLQPEDFATYYCQQGNDLPITFGGGTKVEIK
notes: isotype hIgG1-297A (IgG1 N297A); kappa germline VK1-12.7
B2: Antibody 1G (antibody, IgG1, V domains shown)
VH: QVQLVQSGAEVKKPGASVKVSCKASGYTFTSYGISWVRQAPGQGLEWMGWISAYNGNTNYAQKLQGRVTMTTDTSTSTAYMELRSLRSDDTAVYYCARLGATVAYFDLWGRGTLVTVSS
VL: EIVLTQSPATLSVSPGERATLSCRASQSVSSNLAWYQQKPGQAPRLLIYGASTRATGIPARFSGSGSGTEFTLTISSLQSEDFAVYYCQQDVYWPFTFGGGTKVEIK
notes: isotype hIgG1-297A (IgG1 N297A); kappa germline VK3-15.10
B3: Antibody 3B (antibody, IgG1, V domains shown)
VH: QVQLVQSGAEVKKPGASVKVSCKASGYTFTSYYMHWVRQAPGQGLEWMGIINPSGGSTSYAQKFQGRVTMTRDTSTSTVYMELSSLRSEDTAVYYCARPSGDYSGYDALDVWGQGTMVTVSS
VL: B2 VL with V13L, N32Y, G50D, T53N, E70D, Q79E, S80P, V92P, F96I
notes: isotype hIgG1-297A (IgG1 N297A); kappa germline VK3-11.0
B4: Antibody 2A (antibody, IgG1, V domains shown)
VH: QVQLVQSGAEVKKPGASVKVSCKASGYTFTSYYIHWVRQAPGQGLEWMGIINPSGGSTSYAQKFQGRVTMTRDTSTSTVYMELSSLRSEDTAVYYCARATWEALHYWGQGTLVTVSS
VL: B2 VL with L4M, S30G, D91Y, V92Y, Y93A, F96R
notes: isotype hIgG1-297A (IgG1 N297A); kappa germline VK3-15.1
B5: Antibody 1F (antibody, IgG1, V domains shown)
VH: QVQLQESGPGLVKPSQTLSLTCTVSGGSISSGGYYWSWIRQHPGKGLEWIGSIYYSGSTYYNPSLKSRVTISVDTSKNQFSLKLSSVTAADTAVYYCARLHSSQSSSTYWGQGTLVTVSS
VL: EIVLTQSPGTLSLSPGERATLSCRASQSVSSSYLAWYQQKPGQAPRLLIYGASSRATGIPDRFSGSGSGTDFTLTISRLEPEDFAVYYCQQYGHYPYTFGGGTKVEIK
notes: isotype hIgG1-297A (IgG1 N297A); kappa germline VK3-20.0
B6: BTN3A1-Fc (recombinant human BTN3A1 Fc-chimera, HEK293-expressed, R&D Systems) (Fc fusion, not shown: a dimerising Fc or GST)
chain: not shown
B7: Antibody 3A (antibody, IgG1, V domains shown)
VH: QVQLVQSGAEVKKPGASVKVSCKASGYTFTSYYMHWVRQAPGQGLEWMGIINPGGGSTSYAQKFQGRVTMTRDTSTSTVYMELSSLRSEDTAVYYCARDAGHDYGDMAYWGQGTLVTVSS
VL: DIQMTQSPSTLSASVGDRVTITCRASQSISSWLAWYQQKPGKAPKLLIYKASSLESGVPSRFSGSGSGTEFTLTISSLQPDDFATYYCQQYRSFPTFGGGTKVEIK
notes: isotype hIgG1-297A (IgG1 N297A); kappa germline VK1-05.6

Experiments:
[1] = biological target: T1, BTN2A2-Fc (recombinant human BTN2A2 …); experiment: Octet isoform binding screen
[2] = biological target: T2, BTN3A3-Fc (recombinant human BTN3A3 Fc-chimera, HEK293-expressed, R&D Systems) (human, UniProt O00478 30-248); experiment: Octet isoform binding screen
T2 construct: Bought Fc-chimera; Biotinylated for the yeast display selections; not shown: Fc part of the bought Fc-chimera
T2 sequence (O00478 30-248, change not shown): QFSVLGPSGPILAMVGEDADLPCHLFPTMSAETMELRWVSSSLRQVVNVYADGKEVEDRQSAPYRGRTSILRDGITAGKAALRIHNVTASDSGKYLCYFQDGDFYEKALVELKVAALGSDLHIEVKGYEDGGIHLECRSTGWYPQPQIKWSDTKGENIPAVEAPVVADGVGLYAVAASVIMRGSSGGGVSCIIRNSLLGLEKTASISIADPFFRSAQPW

[3] = biological target: T3, BTN3A2-Fc (recombinant human BTN3A2 Fc-chimera, HEK293-expressed, R&D Systems) (human, UniProt P78410 30-248); experiment: Octet isoform binding screen
T3 construct: Bought Fc-chimera; Biotinylated for the yeast display selections; not shown: Fc part of the bought Fc-chimera
T3 sequence (P78410 30-248, change not shown): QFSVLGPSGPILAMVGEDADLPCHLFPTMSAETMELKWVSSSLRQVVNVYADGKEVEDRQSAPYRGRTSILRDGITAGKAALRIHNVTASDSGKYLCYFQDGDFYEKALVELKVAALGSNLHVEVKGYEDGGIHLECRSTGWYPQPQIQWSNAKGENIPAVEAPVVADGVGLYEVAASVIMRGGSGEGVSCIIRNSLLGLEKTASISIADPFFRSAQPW

[4] = biological target: B6; experiment: binding affinity, method not stated (Octet named in text)
[5] = biological target: T2, BTN3A3-Fc (recombinant human BTN3A3 …); experiment: as above
[6] = biological target: T3, BTN3A2-Fc (recombinant human BTN3A2 …); experiment: as above
[7] = biological target: anti-BTN3A antibody (clone 20.1, Biolegend, catalog #342702); experiment: cell-based or functional assay

Binder | binding result [1] | binding result [2] | binding result [3] | Kd [4] | Kd [5] | Kd [6] | IC50 (read off the curve): inhibition of 20.1-mediated reactivation of latent HIV (luciferase RLU) [7]
B1 | no binding | no binding | no binding | 3.94 nM | – | – | –
B2 | no binding | – | – | 0.974 nM | 1.13 nM | 2.71 nM | –
B3 | no binding | – | – | 2.1 nM | 2.08 nM | 4.57 nM | –
B4 | no binding | – | no binding | 4.38 nM | 8.52 nM | – | –
B5 | no binding | no binding | no binding | 1.53 nM | – | – | –
B6 | – | – | – | – | – | – | ~0.2 µg/mL
B7 | no binding | – | no binding | 2.76 nM | 1.4 nM | – | –
